System: C[C@@H](N)C(=O)O
Test: purified protein, by the assay type
Details: other: air saturation, 25°C, pH 8.5, 0.2 mM FAD

R120L hDAAO variant (Homo sapiens; R120L), sequence (chain, as listed by the source R120L R120L): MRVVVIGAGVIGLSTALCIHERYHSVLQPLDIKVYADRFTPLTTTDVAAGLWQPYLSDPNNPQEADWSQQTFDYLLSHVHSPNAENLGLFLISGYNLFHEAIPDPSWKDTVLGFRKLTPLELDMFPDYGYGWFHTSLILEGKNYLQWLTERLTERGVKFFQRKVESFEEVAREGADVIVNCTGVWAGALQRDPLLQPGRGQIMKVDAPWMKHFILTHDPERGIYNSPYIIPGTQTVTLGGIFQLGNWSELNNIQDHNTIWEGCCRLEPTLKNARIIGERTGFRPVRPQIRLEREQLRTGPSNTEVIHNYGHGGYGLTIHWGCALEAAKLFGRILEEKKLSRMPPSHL
R120E hDAAO variant (Homo sapiens; R120E), sequence (chain, as listed by the source R120E R120E): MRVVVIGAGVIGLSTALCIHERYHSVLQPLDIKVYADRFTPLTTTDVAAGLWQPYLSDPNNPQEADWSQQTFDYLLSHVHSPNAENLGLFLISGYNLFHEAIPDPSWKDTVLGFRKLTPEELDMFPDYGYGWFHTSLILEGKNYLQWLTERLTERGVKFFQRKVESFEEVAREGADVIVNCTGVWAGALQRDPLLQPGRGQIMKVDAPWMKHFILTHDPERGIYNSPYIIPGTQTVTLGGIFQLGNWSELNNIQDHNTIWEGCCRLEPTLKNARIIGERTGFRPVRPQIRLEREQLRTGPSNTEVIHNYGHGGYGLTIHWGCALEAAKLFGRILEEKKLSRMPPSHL

| Substance | Km [µM] | kcat [s⁻¹] | kcat/Km [M⁻¹ s⁻¹] |
| --- | --- | --- | --- |
| R120E hDAAO variant (Homo sapiens; R120E) | 1400 ± 100 | 12.6 | 8900 |
| R120L hDAAO variant (Homo sapiens; R120L) | 2000 ± 300 | 17.3 | 8500 |
